Assay results: paper PMC2244645 (2007)

Target: alpha-synuclein (Homo sapiens, UniProt P37840)
Assay: SPR

| Kd [µM] | Binder |
| --- | --- |
| > 190 | APTYF [PTYF peptide (immobilized with added N-terminal alanine)] |
| 19 | AQSTQ [QSTQ peptide (immobilized with added N-terminal alanine)] |
